Assay [1] addresses T1, mouse DLL4 overexpressed on cells (mouse, UniProt Q9JI71 27-686).
T1 construct: whole, on cells; also called CHO-mDLL4; CHO-mDII4
The assay is described as follows: competitive FMAT, hNotch1-Fc on CHO-mDLL4.

Assay [2] addresses T2, recombinant human DLL4 (human, UniProt Q9NR61 25-522).
T2 construct: also called rhDLL4; hDLL4
Put plainly: competition ELISA, biot-hDLL4 to coated hNotch1-Fc. An excerpt: Residual binding of biotinylated human DII4 is detected using horseradish peroxidase (HRP) conjugated extravidin (Sigma, St. Louis, Mo., USA) (FIG. 3 A-C). Human DII4 is biotinylated as described above.

Assay [3] concerns the target T1, mouse DLL4 overexpressed on cells. The assay is described as follows: FMAT, labelled hNotch1-Fc on CHO-mDLL4, periplasmic extract. An excerpt: (§1) All calculations are based on the FL1_total signal which comprises the average of the fluorescence per well times the number of counts per well.
In another assay the target is T3, human Jagged-1 (human, UniProt P78504 34-1067, limits assumed).
T3 construct: also called hJagged-1; hJAG1
Put plainly: binding ELISA on coated recombinant human Jagged-1, OD 405 nm. As for the experimental part:
Absence of binding to homologous ligands human DLL1 and human Jagged-1 is assessed via solid phase binding assay (ELISA). In brief, human DLL1 (Alexis, San Diego, Calif., USA) and human Jagged-1 (Alexis, San Diego, Calif., USA) are coated overnight at 4° C. at 1 μg/mL in a 96-well MaxiSorp plate (Nunc, Wiesbaden, Germany). Wells are blocked with a casein solution (1% in PBS). VHHs are applied as dilution series and binding is detected using a mouse anti-myc (Roche) and an anti-mouse-AP conjugate (Sigma, St. Louis, Mo., USA).

Assay [4] concerns the target T4, human DLL4 overexpressed on cells (human, UniProt Q9NR61 27-685).
T4 construct: full length human DLL4 on CHO or HEK293 cells; also called CHO-hDLL4; CHO-hDII4
Put plainly: competitive FMAT, hNotch1-Fc on CHO-hDLL4.

The target of assay [5] is T5, cynomolgus DLL4 overexpressed on cells (cynomolgus, UniProt Q9NR61 27-685 (human entry)).
T5 construct: also called cyno DII4; cDLL4
T5 chain: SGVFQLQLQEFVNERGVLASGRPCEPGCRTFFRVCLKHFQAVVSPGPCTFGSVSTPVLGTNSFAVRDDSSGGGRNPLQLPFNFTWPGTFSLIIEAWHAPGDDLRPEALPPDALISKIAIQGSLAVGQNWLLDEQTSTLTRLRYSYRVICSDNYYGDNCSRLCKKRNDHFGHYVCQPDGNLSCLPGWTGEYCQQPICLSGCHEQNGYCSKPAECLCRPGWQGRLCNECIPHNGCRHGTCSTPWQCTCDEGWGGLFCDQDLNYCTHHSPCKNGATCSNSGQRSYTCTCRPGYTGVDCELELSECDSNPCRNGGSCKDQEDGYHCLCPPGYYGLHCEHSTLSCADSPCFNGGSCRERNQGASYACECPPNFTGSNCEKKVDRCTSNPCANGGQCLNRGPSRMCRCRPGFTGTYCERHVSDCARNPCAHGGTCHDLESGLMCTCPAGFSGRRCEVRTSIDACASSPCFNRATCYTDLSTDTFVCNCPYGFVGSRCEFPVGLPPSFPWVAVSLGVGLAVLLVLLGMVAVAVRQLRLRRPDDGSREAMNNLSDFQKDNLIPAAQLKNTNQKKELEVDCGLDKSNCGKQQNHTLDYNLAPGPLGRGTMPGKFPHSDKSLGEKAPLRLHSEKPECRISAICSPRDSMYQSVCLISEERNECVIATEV
Put plainly: FACS titration on HEK293-cDLL4 cells, MCF. As for the experimental part: (§2) In order to determine the cynomologus cross-reactivity of the VHHs, a FACS binding experiment is performed. Cynomolgus DII4 expressing HEK293 cells (transient or stable transfection) are used for a titration binding experiment of the VHHs. After a 30 minutes incubation on ice, all samples are washed and detection is performed by applying anti-c-myc˜Alexa647 (Santa Cruz Biotechnology, Santa Cruz, Calif., USA). Human and mouse DII4 overexpressing HEK293 cells are taken as reference. The mean MCF value is determined on the FACS Array and used for calculation of the EC₅₀ value (see FIG. 9 A-E).

Assay [6] concerns the target T1, mouse DLL4 overexpressed on cells. Put plainly: FACS titration on HEK293-mDLL4 cells, MCF. As for the experimental part:
as §2

In assay [7] the target is T4, human DLL4 overexpressed on cells. The assay is described as follows: cell-based or functional assay.
The target of a further assay is T6, recombinant mouse DLL4 (mouse, UniProt Q9JI71 27-532).
T6 construct: extracellular domain; also called rmDLL4; mDLL4
T6 sequence (Q9JI71 27-532): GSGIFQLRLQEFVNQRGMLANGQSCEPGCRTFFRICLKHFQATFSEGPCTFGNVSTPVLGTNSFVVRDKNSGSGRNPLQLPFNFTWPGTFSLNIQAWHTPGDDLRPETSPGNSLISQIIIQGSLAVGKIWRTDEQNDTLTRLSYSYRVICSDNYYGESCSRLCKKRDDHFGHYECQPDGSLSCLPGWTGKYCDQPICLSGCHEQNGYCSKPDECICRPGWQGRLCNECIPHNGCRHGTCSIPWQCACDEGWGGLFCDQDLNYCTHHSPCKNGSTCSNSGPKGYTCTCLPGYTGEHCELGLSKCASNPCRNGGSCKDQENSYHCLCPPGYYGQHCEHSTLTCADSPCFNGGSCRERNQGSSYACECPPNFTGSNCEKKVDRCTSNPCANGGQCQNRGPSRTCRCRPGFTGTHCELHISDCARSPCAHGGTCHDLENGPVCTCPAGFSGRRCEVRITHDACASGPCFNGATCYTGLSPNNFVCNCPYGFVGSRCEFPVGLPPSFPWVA
Put plainly: binding ELISA, coated rmDLL4. As for the experimental part:
(§3) In order to determine cross-reactivity to mouse DII4 a binding ELISA is performed. […] Wells are blocked with a casein solution (1% in PBS). VHHs are applied as dilution series and binding is detected using a mouse anti-myc (Roche) and an anti-mouse-AP conjugate (Sigma, St Louis, Mo., USA) (FIG. 7 A-H). As reference, binding to human DII4 is measured.

The target of assay [8] is T2, recombinant human DLL4. Put plainly: SPR Biacore T100, hDLL4 on chip, VHH/Fab injected. On the procedure:
Kinetic analysis to determine the affinity of the DII4-VHH interaction is performed by Surface Plasmon Resonance (SPR) on a Biacore T100 instrument. […] Purified VHHs or Fab fragment are injected for 2 minutes at different concentrations (between 10 and 300 nM) and allowed to dissociate for 20 min at a flow rate of 45 μl/min. Between sample injections, the surfaces are regenerated with 10 mM glycine pH1.5 and 100 mM HCl. HBS-N (Hepes buffer pH7.4) is used as running buffer. If possible, data are evaluated by fitting a 1:1 interaction model (Langmuir binding) onto the binding curves. The affinity constant KD is calculated from resulting association and dissociation rate constants (kₐ) and […].

In assay [9] the target is T4, human DLL4 overexpressed on cells. Put plainly: FMAT, labelled hNotch1-Fc on CHO-hDLL4, periplasmic extract.
Description: as §1

In assay [10] the target is T2, recombinant human DLL4. The assay is described as follows: binding ELISA, coated rhDLL4. On the procedure: as §3
For assay [11], the target named is T7, human DLL4 expressed on cells (CHO-hDLL4; HEK293-hDLL4) (human, UniProt Q9NR61 27-685).
T7 construct: full length human DLL4 overexpressed on CHO cells (FMAT, FACS) or HEK293 cells (reporter assay)
The assay is described as follows: competition FMAT, labelled hNotch1-Fc on CHO-hDLL4 cells.

Assay [12] concerns the target T7, human DLL4 expressed on cells …. The assay is described as follows: cell-based or functional assay.
Assay [13] addresses T8, recombinant human DLL4 (C-terminally His-tagged extracellular domain, R&D Systems) (human, UniProt Q9NR61 25-522, biotinylated in the competition ELISA). The assay is described as follows: cell-based or functional assay.
Assay [14] addresses T8, recombinant human DLL4 (C-terminally …). The assay is described as follows: SPR (Biacore), recombinant human DLL4.
Assay [15] has as its target T9, mouse DLL4 expressed on CHO cells (mouse, UniProt Q9JI71 27-686).
T9 construct: whole, on cells; also called mDLL4; CHO-mDLL4
The assay is described as follows: competition FMAT, labelled hNotch1-Fc on CHO-mDLL4 cells.

In assay [16] the target is T10, recombinant human VEGF165 (human, UniProt P15692-4 27-191, biotinylated in the competition assays).
T10 construct: Bought protein; also called hVEGF165; rhVEGF165
T10 sequence (P15692 other isoform, or with tags, fused parts or gaps): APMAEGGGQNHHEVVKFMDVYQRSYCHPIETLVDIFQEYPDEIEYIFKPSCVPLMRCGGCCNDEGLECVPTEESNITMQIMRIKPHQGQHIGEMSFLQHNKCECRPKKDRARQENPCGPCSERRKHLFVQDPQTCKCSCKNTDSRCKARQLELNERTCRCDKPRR
Put plainly: ELISA, hVEGF165/hVEGFR2-Fc competition. More on the design: % inhibition: concentration or dose not given beside the values.

Assay [17] deals with T10, recombinant human VEGF165. The assay is described as follows: binding ELISA, coated rhVEGF165.
For assay [18], the target named is T10, recombinant human VEGF165. Put plainly: AlphaScreen, hVEGF165/hVEGFR2-Fc competition. Set-up: % inhibition: concentration or dose not given beside the values. On the procedure: (§4) Finally, streptavidin donor beads (20 μg/ml) are added and after 1 hour of incubation in the dark, fluorescence is measured on the Envision microplate reader.
Assay [19] deals with T10, recombinant human VEGF165. Put plainly: SPR Biacore, immobilised hVEGF165, two state reaction model. On the procedure:
Samples are injected for 2 min and allowed to dissociate up to 20 min at a flow rate of 45 μl/min. In between sample injections, the chip surface is regenerated with 100 mM HCl. HBS-EP+(Hepes buffer pH7.4+EDTA) is used as running buffer. Binding curves are fitted using a Two State Reaction model by Biacore T100 Evaluation Software v2.0.1.
^{(a)}KD = kd1/kₐ₁ * (kd2/(kd2 + kₐ₂)) ^{(b)}Curves are fitted using a Two State Reaction model by Biacore T100 Evaluation Software v2.0.1

In assay [20] the target is VEGF (used to stimulate HUVEC cells) (UniProt P15692-4 27-191, limits assumed). Put plainly: cell-based or functional assay.
Sequence of VEGF (used to stimulate HUVEC cells) (P15692 other isoform, or with tags, fused parts or gaps limits assumed): as the sequence (P15692 other isoform, or with tags, fused parts or gaps) above
In assay [21] the target is T10, recombinant human VEGF165. Put plainly: AlphaScreen, hVEGF165/hVEGFR1-Fc competition. More on the design: % inhibition: concentration or dose not given beside the values. On the procedure:
as §4

Assay [22] deals with T10, recombinant human VEGF165. Put plainly: AlphaScreen, hVEGF165/hVEGFR2-Fc competition. As for the experimental part:
as §4

T1 sequence (Q9JI71 27-686): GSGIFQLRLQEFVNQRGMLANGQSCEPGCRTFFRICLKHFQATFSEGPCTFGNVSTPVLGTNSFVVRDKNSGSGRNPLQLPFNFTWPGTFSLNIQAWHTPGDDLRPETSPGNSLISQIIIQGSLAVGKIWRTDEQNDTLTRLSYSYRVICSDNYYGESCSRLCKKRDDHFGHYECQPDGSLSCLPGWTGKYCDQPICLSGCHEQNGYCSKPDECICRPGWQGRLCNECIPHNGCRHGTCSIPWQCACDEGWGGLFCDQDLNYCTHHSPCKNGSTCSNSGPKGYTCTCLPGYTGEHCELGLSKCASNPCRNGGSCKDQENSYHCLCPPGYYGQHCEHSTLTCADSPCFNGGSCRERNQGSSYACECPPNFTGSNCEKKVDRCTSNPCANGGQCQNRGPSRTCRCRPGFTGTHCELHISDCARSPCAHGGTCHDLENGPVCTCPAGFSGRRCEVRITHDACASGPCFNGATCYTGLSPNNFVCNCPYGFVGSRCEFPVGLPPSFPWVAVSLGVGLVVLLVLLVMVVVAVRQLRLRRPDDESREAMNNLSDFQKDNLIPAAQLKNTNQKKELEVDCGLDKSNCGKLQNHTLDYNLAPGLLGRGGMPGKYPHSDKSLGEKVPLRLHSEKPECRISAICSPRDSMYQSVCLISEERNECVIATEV
T9 sequence (Q9JI71 27-686): as above

B1: DLLBII96C03 (VHH)
VHH: EVQLVESGGGLVQPGGSLRLSCAASGFTFGNYDMSWVRQAPGKGPEWVSAINSGGGDTYYADSVKGRFTISRDNAKNTLYLQMNSLKPEDTAVYYCATPRGWGPTGPHEYGYWGQGTQVTVSS
notes: also called 96C3
Take B1: the results for the IC50 (in [1]; with recombinant human DLL4 [2]; in [4]) were 28.8 nM, 38.4 nM and 161 nM, respectively. The “% inh” value in assay [3] stood at 83%; in assay [9], 75%. The binding result in the assay with human Jagged-1 is on record as “no binding (tested: 5e-7 M)”; in assay [5] it was “no binding (tested: 1000 nM)”. The “EC50 (read off the curve)” value in assay [6] is approximately 20 nM. Further, the “IC50, DLL4/Notch1 reporter assay” value in assay [7] worked out at 5160 nM. The EC50 with recombinant mouse DLL4 turned out to be 8.7 nM; with recombinant human DLL4 [10], 86.5 nM. Also, the Kd with recombinant human DLL4 [8] came out at 310 nM. In addition, the koff with recombinant human DLL4 [8] came to 0.048 s⁻¹. Moreover, in the assay with recombinant human DLL4 [8], the on-rate constant (kon) was found to be 160000 M⁻¹ s⁻¹.

B2: DLLBII039 (VHH, not shown: small tags and cut ends)
VHH: EVQLVESGGGLVQPGGSLRLSCAASGFTIGSYDMSWVRRAPGKGPEWVSSISSGGGSTYYADYVKGRFTISRDNAKNTLYLQMNSLRPEDTAVYYCAADRYIWARQGEYWGAYEYDYWGQGTLVTVSS
In assay [11], B2 returned an IC50 of 6.2 nM. For the same molecule, the “IC50, DLL4-mediated reporter assay (hDLL4)” value in assay [12] turned out to be 16 nM. Further, in assay [13], the “IC50, DLL4-mediated HUVEC proliferation assay” value came to 14.4 nM and the “Inhibition (%), DLL4-mediated HUVEC proliferation assay” value came out at 100%. In addition, in [14], the Kd was 1.8 nM, the koff stood at 0.00081 s⁻¹ and the kon turned out to be 450000 M⁻¹ s⁻¹. This molecule displayed an IC50 in [15] of 43.8 nM.

B3: VEGFBII023 (VHH, not shown: small tags and cut ends)
chain: EVQLVESGGGLVQTGDSLRLSCEVSGRTFSSYSMGWFRQAQGKEREFVVAISKGGYKYDSVSLEGRFTISKDNAKNTVYLQINSLKPEDTAVYYCASSRAYGSSRLRLADTYEYWGQGTQVTVSSGGGGSGGGGSGGGGSGGGGSGGGGSGGGGSGGGGSGGGGSEVQLVESGGGLVQAGGSLRLSCAASGRTFSNYAMGWFRQAPGKERVLVADISSSGINTYVADAVKGRFTISRDNAKNTVYLQMNSLKPEDTAVYYCAASAWWYSQMARDNYRYWGQGTQVTVSS
notes: Bivalent anti-VEGF VHH; also called VEGFBII23B04-40GS-10E07
On to B3, for which, in [16], the “% inhibition” value worked out at 100% and the IC50 was determined as 0.213 nM. For the same molecule, the EC50 in assay [17] was 0.221 nM. Also, in assay [18], the “% inhibition” value came out at 100% and the IC50 amounted to 0.046 nM. Further, in assay [19], the Kd was 0.69 nM, the ka1 turned out to be 300000 M⁻¹ s⁻¹, the ka2 turned out to be 0.024 s⁻¹ and the kd1 was 0.018 s⁻¹. Besides, the kd2 in [19] was determined as 0.00027 s⁻¹. For the same molecule, in [20], the “% inhibition, VEGF HUVEC Erk phosphorylation assay” value turned out to be 100% and the “IC50, VEGF HUVEC Erk phosphorylation assay” value was found to be 0.25 nM. In addition, in [21], the “% inhibition” value was found to be 87% and the IC50 was found to be 0.048 nM. Also, the IC50 in assay [22] was found to be 0.038 nM.

(Values after patent publication US20140120095A1 (Boehringer Ingelheim, published 2014).)
